# Laboratory results: the supplement of paper PMC9112550, “Optimization of the antimicrobial peptide Bac7 by deep mutational scanning” (BMC Biology, 2022)
# Test system: Escherichia coli TOP10
# Experiment: shrunken log2 fold change of peptide-encoding DNA abundance (4.5 h post-induction vs induction); higher = less antimicrobial activity (less host growth inhibition)
# Details: time post-induction: 4.5 h; library: site-saturation at positions 5, 18, 19, 20
# 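Further: peptides expressed intracellularly from a pBAD plasmid library in pooled LB shake-flask culture, induced with 0.3% L-arabinose, DNA abundance read by NGS, three biological replicates, DESeq2 with apeglm shrinkage.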
row,Sequence,shrunken log2 fold change
1,RRIRKRPPRLPRPRPRPKLEPRP,-0.0306
2,RRIRHRPPRLPRPRPRPPHRPRP,0.198
3,RRIRPRPPRLPRPRPRPMKVPRP,-0.0686
4,RRIRDRPPRLPRPRPRPVFWPRP,0.639
5,RRIRSRPPRLPRPRPRPSGIPRP,-0.169
6,RRIRFRPPRLPRPRPRPFYDPRP,-0.0631
7,RRIRDRPPRLPRPRPRPQVIPRP,-0.0205
8,RRIRLRPPRLPRPRPRPVALPRP,0.0145
9,RRIRFRPPRLPRPRPRPEATPRP,0.565
10,RRIRPRPPRLPRPRPRPEQAPRP,0.0776
11,RRIRRRPPRLPRPRPRPNNSPRP,-0.356
12,RRIRYRPPRLPRPRPRPPKHPRP,-0.165
13,RRIRKRPPRLPRPRPRPEPYPRP,-0.0587
14,RRIRVRPPRLPRPRPRPTFNPRP,0.127
15,RRIRFRPPRLPRPRPRPNCIPRP,-0.342
16,RRIRHRPPRLPRPRPRPYYDPRP,-0.0623
17,RRIRPRPPRLPRPRPRPQPTPRP,-0.0242
18,RRIRFRPPRLPRPRPRPALHPRP,-0.0349
19,RRIRERPPRLPRPRPRPATNPRP,-0.386
20,RRIRHRPPRLPRPRPRPFTHPRP,-0.0608
21,RRIRFRPPRLPRPRPRPHYNPRP,-0.786
22,RRIRKRPPRLPRPRPRPWMQPRP,-0.0134
23,RRIRTRPPRLPRPRPRPISTPRP,-0.504
24,RRIRCRPPRLPRPRPRPCSLPRP,-0.477
25,RRIRCRPPRLPRPRPRPLRVPRP,0.0985

row,Sequence,shrunken log2 fold change
1,RRIRSRPPRLPRPRPRPMWLPRP,0.0415
2,RRIRMRPPRLPRPRPRPRIEPRP,-0.0903
3,RRIRMRPPRLPRPRPRPSKMPRP,-0.0315
4,RRIRNRPPRLPRPRPRPKEVPRP,0.0999
5,RRIRCRPPRLPRPRPRPFMFPRP,-0.421
6,RRIRKRPPRLPRPRPRPQLMPRP,1.59
7,RRIRRRPPRLPRPRPRPAVDPRP,0.204
8,RRIRERPPRLPRPRPRPHADPRP,0.0454
9,RRIRRRPPRLPRPRPRPDGVPRP,0.268
10,RRIRVRPPRLPRPRPRPRESPRP,0.259
11,RRIRWRPPRLPRPRPRPTSGPRP,0.593
12,RRIRMRPPRLPRPRPRPTVEPRP,3.68
13,RRIRDRPPRLPRPRPRPKTFPRP,0.00972
14,RRIRERPPRLPRPRPRPNIQPRP,-0.357
15,RRIRNRPPRLPRPRPRPWSEPRP,0.0632
16,RRIRMRPPRLPRPRPRPKAWPRP,0.0535
17,RRIRHRPPRLPRPRPRPHHQPRP,-0.364
18,RRIRYRPPRLPRPRPRPFTDPRP,-0.583
19,RRIRARPPRLPRPRPRPKGEPRP,0.556
20,RRIRMRPPRLPRPRPRPFSDPRP,-0.0199
21,RRIRLRPPRLPRPRPRPTAIPRP,-0.17
22,RRIRDRPPRLPRPRPRPIMTPRP,0.107
23,RRIRMRPPRLPRPRPRPYRMPRP,-0.219
24,RRIRVRPPRLPRPRPRPIHSPRP,-0.252
25,RRIRNRPPRLPRPRPRPRHTPRP,-0.096

row,Sequence,shrunken log2 fold change
1,RRIRQRPPRLPRPRPRPHIDPRP,-0.224
2,RRIRCRPPRLPRPRPRPALTPRP,0.224
3,RRIRDRPPRLPRPRPRPSFGPRP,-0.0644
4,RRIRARPPRLPRPRPRPIRKPRP,0.0897
5,RRIRYRPPRLPRPRPRPHSFPRP,-0.00356
6,RRIRCRPPRLPRPRPRPKAGPRP,0.251
7,RRIRERPPRLPRPRPRPMIAPRP,0.121
8,RRIRKRPPRLPRPRPRPMQEPRP,0.0391
9,RRIRMRPPRLPRPRPRPMKNPRP,0.328
10,RRIRVRPPRLPRPRPRPPIVPRP,0.0432
11,RRIRTRPPRLPRPRPRPWHIPRP,-0.115
12,RRIRRRPPRLPRPRPRPIPRPRP,0.625
13,RRIRQRPPRLPRPRPRPEVCPRP,0.134
14,RRIRIRPPRLPRPRPRPRSRPRP,0.0781
15,RRIRERPPRLPRPRPRPREYPRP,-0.242
16,RRIRSRPPRLPRPRPRPHRQPRP,0.114
17,RRIRYRPPRLPRPRPRPCHVPRP,-0.0447
18,RRIRHRPPRLPRPRPRPYFAPRP,0.52
19,RRIRCRPPRLPRPRPRPWWYPRP,-0.136
20,RRIRFRPPRLPRPRPRPRCEPRP,-0.0311
21,RRIRWRPPRLPRPRPRPWDKPRP,-0.0732
22,RRIRGRPPRLPRPRPRPMSVPRP,0.0559
23,RRIRPRPPRLPRPRPRPNEDPRP,-0.509
24,RRIRRRPPRLPRPRPRPITIPRP,0.035
25,RRIRHRPPRLPRPRPRPDSVPRP,-0.117
